Laboratory results reported in US20140056890A1 (ONCEMED PHARMACEUTICALS, published 2014).

Target: T1, pYAP (human, UniProt P46937, phosphorylated; site not stated in Example 13 (detected with phospho-YAP1 antibody #4911, Cell Signaling Technology; the anti-pYAP antibody of Examples 5 and 7 is to Ser127))
T1 construct: full length, endogenous; also called phospho-YAP; phospho-YAP1
Test: co-immunoprecipitation: anti-FLAG IP from lysate of transiently transfected HEK-293T cells, Western blot with anti-phospho-YAP1
Description: To validate these protein complexes, immunoprecipitates (see method described above) were prepared from HEK-293T cells transiently transfected with FLAG-tagged full-length CADM1, CADM3, PVR, PVRL1, and PVRL3, with CADM3-CD4TM-GFP and LGR5-CD4TM-GFP constructs as internal negative controls. Total cell lysates and the immunoprecipitate eluates were run on 4-12% Tris-Glycine Midi Gels (Life Technologies/Invitrogen, Grand Island, N.Y.) and transferred by iBlot onto PVDF membranes (Life Technologies/Invitrogen).

T1 sequence (P46937 whole entry): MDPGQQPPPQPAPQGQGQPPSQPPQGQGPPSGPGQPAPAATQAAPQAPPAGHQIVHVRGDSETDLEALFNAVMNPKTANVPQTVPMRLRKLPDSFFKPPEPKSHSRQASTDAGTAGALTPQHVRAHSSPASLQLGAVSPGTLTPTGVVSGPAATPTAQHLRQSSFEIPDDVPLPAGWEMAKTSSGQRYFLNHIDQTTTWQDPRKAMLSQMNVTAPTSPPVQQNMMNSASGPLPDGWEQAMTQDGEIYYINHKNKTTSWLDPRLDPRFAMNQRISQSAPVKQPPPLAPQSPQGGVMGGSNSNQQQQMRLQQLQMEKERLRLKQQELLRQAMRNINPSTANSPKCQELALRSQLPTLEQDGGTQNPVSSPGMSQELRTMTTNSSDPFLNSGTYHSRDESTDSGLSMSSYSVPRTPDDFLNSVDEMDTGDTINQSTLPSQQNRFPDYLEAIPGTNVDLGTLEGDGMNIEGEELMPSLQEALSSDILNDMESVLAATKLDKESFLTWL

B1: FLAG-tagged full-length PVR (receptor)
chain: WPPPGTGDVVVQAPTQVPGFLGDSVTLPCYLQVPNMEVTHVSQLTWARHGESGSMAVFHQTQGPSYSESKRLEFVAARLGAELRNASLRMFGLRVEDEGNYTCLFVTFPQGSRSVDIWLRVLAKPQNTAEVQKVQLTGEPVPMARCVSTGGRPPAQITWHSDLGGMPNTSQVPGFLSGTVTVTSLWILVPSSQVDGKNVTCKVEHESFEKPQLLTVNLTVYYPPEVSISGYDNNWYLGQNEATLTCDARSNPEPTGYNWSTTMGPLPPFAVAQGAQLLIRPVDKPINTTLICNVTNALGARQAELTVQVKEGPPSEHSGMSRNAIIFLVLGILVFLILLGIGIYFYWSKCSREVLWHCHLCPSSTEHASASANGHVSYSAVSRENSSSQDPQTEGTR
notes: Bait, transiently expressed in HEK-293T cells and immunoprecipitated from lysates with anti-FLAG agarose; also called Poliovirus receptor; NECL-5
  binding result: no binding
